Values of other authors, collected in article PMC6722209.

How the values were obtained:
[1] = molecular target: IgG1 Fc Fc (Homo sapiens) [IgG part: P01857]; experiment: fluorescence anisotropy
[2] = molecular target: IgG1 Fc Fc (Homo sapiens) [IgG part: P01857]; experiment: ITC and SPR

Sequence of TRIM21 (P19474 whole entry): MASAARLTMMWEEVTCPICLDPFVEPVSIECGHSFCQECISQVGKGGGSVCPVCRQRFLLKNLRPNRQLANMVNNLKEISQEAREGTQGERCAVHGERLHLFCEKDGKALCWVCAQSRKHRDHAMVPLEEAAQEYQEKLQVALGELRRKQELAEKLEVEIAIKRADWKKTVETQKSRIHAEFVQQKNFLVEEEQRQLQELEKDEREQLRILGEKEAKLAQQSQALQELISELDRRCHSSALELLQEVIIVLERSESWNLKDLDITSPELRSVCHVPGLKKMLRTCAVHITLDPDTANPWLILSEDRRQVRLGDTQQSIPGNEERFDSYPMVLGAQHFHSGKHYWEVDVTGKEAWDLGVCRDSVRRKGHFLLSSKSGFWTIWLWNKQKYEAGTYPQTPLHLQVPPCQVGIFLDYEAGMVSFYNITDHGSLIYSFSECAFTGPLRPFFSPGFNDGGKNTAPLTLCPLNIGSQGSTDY
Sequence of TRIM21 PRYSPRY (P19474 268-465): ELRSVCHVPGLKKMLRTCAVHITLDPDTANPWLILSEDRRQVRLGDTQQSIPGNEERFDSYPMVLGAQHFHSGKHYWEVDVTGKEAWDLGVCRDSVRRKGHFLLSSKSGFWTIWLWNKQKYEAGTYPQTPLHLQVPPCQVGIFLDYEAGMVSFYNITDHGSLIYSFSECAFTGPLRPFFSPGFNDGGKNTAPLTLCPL

Substance	Kd [1] [nM]	Kd [2] [nM]
TRIM21 (from UniProt P19474)	0.6	–
TRIM21 PRYSPRY (from UniProt P19474)	–	175
